Consider 33 sequences from the supplement of paper PMC9170038.

In the data set the test system is MS2 coat protein. Kind of data set: apparent KD of MS2 coat protein; designed switch direction (-1 OFF switch, 1 ON switch): -1; higher = weaker reporter binding. A digest of the protocol: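 SNAP-549-labelled MS2 coat protein was titrated, doubling from 0.7 or 1.5 nM to 3 µM, over designed RNA switches transcribed on Illumina chips by stalled E. coli RNA polymerase. Runs were done without input, with 200 uM small-molecule ligand, or with an oligonucleotide input. Apparent KD is the per-design median over clusters of curve-fitted normalised fluorescence.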

Where [1] appears, read: Eterna round: R95, input ligand: microRNA oligo, concentration not stated.
Where [2] appears, read: Eterna round: R95, input ligand: FMN 200 uM.
[3] abbreviates: Eterna round: R95, input ligand: none.
Where [4] appears, read: input ligand: microRNA oligo, concentration not stated.

As to “GAGAUGUGAGGAUAUCUAGACCGCGGAAGAGCUGCGGUCCGAGAGAAGGCACAUGAGGAUCACCCAUGUGAUGA [Attere] (puzzle: Exclusion 4)”, the “apparent KD of MS2 coat protein” value under setting [1] is 38.4 nM.

“GAGCCAACAGGAUAUACAUGAGGAUCACCCAUGUGAAUUCGCUACACAGGGAUGAACAGUAGAAGGGUUGGUAU [Eternabot (Original) Solution 49] (Eterna round: R97, puzzle: Exclusion 3)”: the “apparent KD of MS2 coat protein” value stood at 165 nM (input ligand: FMN 200 uM) and 229 nM (input ligand: none).

For “GAGCUAUGAGGAUAUGCAUAUAUGCGGUUUCGUGUGGUACUACAUGAGGAUCACCCAUGUAGAAGGCGUGGCAG [Mat - Exclusion 2 - Mod of JL - D79] (puzzle: Exclusion 2)”, the “apparent KD of MS2 coat protein” value under setting [1] was found to be 13.2 nM.

For “GAGCUGUGAGGAUAUACAUGAGGAUCACCCAUGUUAAGGAAGUGGUGUAUAUUGUAGUGUAGAAGGCACUUGUG [JR_Ex3_Sub025] (Eterna round: R97, puzzle: Exclusion 3)”, the “apparent KD of MS2 coat protein” value reads like this: (input ligand: FMN 200 uM) 600 nM; (input ligand: none) 306 nM.

As for “GAGGAGCAAGGAUAUACGAGGAUAUGGAAGGUUGGAGAGUGACAUGAGGAUCACCCAUGUAGAAGGUGCGAGGG [JR_Exclu2_Sub097] (puzzle: Exclusion 2)”, under setting [1], the “apparent KD of MS2 coat protein” value was 43.4 nM.

Consider “GAGGCUAAAGGAUAUACAUGAGGAUCACCCAUGUGGAGGAAGGUUAGAUGAGGAGAAGGUAGAAGGUUAGGCGA [JR_Exclu3_Sub093] (puzzle: Exclusion 3)”, for which the “apparent KD of MS2 coat protein” value runs as follows: under setting [2], 29.7 nM; under setting [1], 23.6 nM; under setting [3], 28.6 nM.

Take “GAGGGACAUGAGGAUCACCCAUGUGAGGAUAUGGAGAGGAGGAGGGAGGAGGAGGAGGCCAGAAGGCGCAAGAA [THE BEST I guess] (puzzle: Exclusion 1)”: the “apparent KD of MS2 coat protein” value was 22.6 nM under setting [2], 28 nM under setting [1] and 46 nM under setting [3].

As to “GAGGGACAUGAGGAUCACCCAUGUGAGGAUAUGUGAGAAGGAUUGGAGAGUGAGUGGGACAGAAGGCGCAAGGG [JR_Exclu1_Sub085] (puzzle: Exclusion 1)”, the “apparent KD of MS2 coat protein” value reads like this: under setting [2], 95.4 nM; under setting [1], 59.9 nM; under setting [3], 78 nM.

“GAGGGUUAAGGAUAUACAUGAGGAUCACCCAUGUAUGGCAAGCCAUAAUCCUCAUUAAGUAGAAGGUAACCUUC [Edederle] (puzzle: Exclusion 3)”: the “apparent KD of MS2 coat protein” value under setting [1] was determined as 11.8 nM.

Consider “GAGUAGAGAGGAUAUGCAAUGAUCAUCGUACGAUGAGGCUGACAUGAGGAUCACCCAUGUAGAAGGCUCUGGUC [EX2 #20] (Eterna round: R97, puzzle: Exclusion 2)”, for which the “apparent KD of MS2 coat protein” value (input ligand: FMN 200 uM) is 22.5 nM and the “apparent KD of MS2 coat protein” value (input ligand: none) came out at 23.3 nM.

On to “GAGUAGUAAGGAUAUAGUAGGAGGGAGAAGAGAGGAGAGAACUAGAAGGUACAUGAGGAUCACCCAUGUUGAGA [JR_Exclu4_Sub083] (puzzle: Exclusion 4)”, for which the “apparent KD of MS2 coat protein” value under setting [2] came to 18.5 nM, the “apparent KD of MS2 coat protein” value under setting [1] was found to be 17 nM and the “apparent KD of MS2 coat protein” value under setting [3] is 20.4 nM.

Regarding “GAGUGAAGUGCAGGAUAUCUAGAAGGAAGAAGGAGGAAACAUGAGGAUCACCCAUGUAAUCCAUAAGAGAAGGGCGGAGAGGAG [An ugly monster] (Eterna round: R96, puzzle: Exclusion NG 2)”, the “apparent KD of MS2 coat protein” value reads like this: (input ligand: FMN 200 uM) 16.3 nM; under setting [4], 14.3 nM; (input ligand: none) 18.3 nM.

With “GAGUUAGCGUGAGGAAUAUACAUGAGGAUCACCCAUGUUAGCUAAUAUAUUGCUCGUCUUAUAACAACAAUUAACUC [Alarm 10 - Jieux - Sensor, turn-off variant 1] (Eterna round: R97, puzzle: Sensor, turn-off variant 1)”, the “apparent KD of MS2 coat protein” value worked out at 14.6 nM (input ligand: FMN 200 uM) and 13.2 nM (input ligand: none).

Take “GAGUUAGCGUGUGGAAUAUACAUGAGGAUCACCCAUGUUAGCUUAUAUAUUGCUCGUCUUAUAACAACAAUUAACUG [Mod JX-Electric-eye3] (Eterna round: R97, puzzle: Sensor, turn-off variant 1)”: the “apparent KD of MS2 coat protein” value was 138 nM (input ligand: FMN 200 uM) and 143 nM (input ligand: none).

As for “GAUAAGGUAGGAUAUACGAAUAAAAAGGGUAGAAGAAGAACACAUGAGGAUCACCCAUGUAGAAGGACCAAUAG [Mat - Exclusion 2 - Mod of my Tesla design - D24] (puzzle: Exclusion 2)”, the “apparent KD of MS2 coat protein” value reads like this: under setting [2], 37.9 nM; under setting [1], 19.7 nM; under setting [3], 16.5 nM.

Turning to “GAUAAGGUAGGAUAUACGAAUAAAUAGGGUAGUAAUAAUACACAUGAGGAUCACCCAUGUAGAAGGACCAAUAG [Mat - Exclusion 2 - Mod of my Tesla design - D41] (puzzle: Exclusion 2)”, the “apparent KD of MS2 coat protein” value is, setting by setting: under setting [2], 37.4 nM; under setting [1], 19.4 nM; under setting [3], 21.4 nM.

On to “GAUAGAGAGCAGGAUAUCUUGGGUAAGUAUCAUAGAGAAGGGCUCACAUGAGGAUCACCCAUGUGGUCCAAGAU [Dibira] (puzzle: Exclusion 6)”, for which the “apparent KD of MS2 coat protein” value by setting is: under setting [2], 42.8 nM; under setting [1], 13 nM; under setting [3], 12.6 nM.

Take “GAUAGAGAGCAGGAUAUCUUGGGUAAGUAUCGUAGAGAAGGGCUCACAUGAGGAUCACCCAUGUGGUCCAAGAU [JL Dibiri mod 01] (puzzle: Exclusion 6)”: under setting [1], the “apparent KD of MS2 coat protein” value worked out at 14.4 nM.

Turning to “GAUAUAGAGCAGGAUAUCUUAGAUAUGUAAUAAAGAGAAGGGCUCACAUGAGGAUCACCCAUGUGGUCCUAGAU [JL Dibiri mod 13] (puzzle: Exclusion 6)”, the “apparent KD of MS2 coat protein” value under setting [1] turned out to be 20.7 nM.

Regarding “GAUCAACAUGAGGAUCACCCAUGUGAGGAUAUGAUACUAUGUACUUCGGUACAUAGUAUCAGAAGGCACAUUGA [Ex1-3: 42] (puzzle: Exclusion 1)”, the “apparent KD of MS2 coat protein” value under setting [1] was 90.9 nM.

“GAUCAUGCAGGAUAUACAGUUUCCAUGAUAACAUGGUCCUCACAUGAGGAUCACCCAUGUAGAAGGGCAUGAUC [Omei Ex2 A29] (Eterna round: R97, puzzle: Exclusion 2)”: the “apparent KD of MS2 coat protein” value by setting is: (input ligand: FMN 200 uM) 258 nM; (input ligand: none) 1080 nM.

Turning to “GAUCAUGCAGGAUAUACAUGGAUCAUGAAAACAUGGAUUUCACAUGAGGAUCACCCAUGUAGAAGGGCAUGAUC [Omei Ex2 A10] (Eterna round: R97, puzzle: Exclusion 2)”, the “apparent KD of MS2 coat protein” value (input ligand: FMN 200 uM) worked out at 47.5 nM and the “apparent KD of MS2 coat protein” value (input ligand: none) was found to be 141 nM.

For “GAUCCACAUGAGGAUCACCCAUGUGAGGAUAUGAUACUAUGUACUUCGGUACAUAGUAUCAGAAGGCACAGGUC [Ex1-3: 56] (Eterna round: R96, puzzle: Exclusion 1)”, the “apparent KD of MS2 coat protein” value runs as follows: (input ligand: FMN 200 uM) 333 nM; under setting [4], 50.7 nM; (input ligand: none) 52.9 nM.

“GAUCCACAUGAGGAUCACCCAUGUGAGGAUAUGAUACUAUGUACUUCGGUACAUAGUAUCAGAAGGCACAGGUC [Ex1-3: 56] (puzzle: Exclusion 1)”: under setting [1], the “apparent KD of MS2 coat protein” value came out at 50.6 nM.

As to “GAUGAGGUAGGAUAUACGAUAAUAUAGGGUAGAUAUAUAACACAUGAGGAUCACCCAUGUAGAAGGACCAGUAC [Mat - Exclusion 2 - Mod of my Tesla design - D69] (puzzle: Exclusion 2)”, the “apparent KD of MS2 coat protein” value under setting [1] was found to be 36.4 nM.

“GAUGUUUAAGGAUAUACAAUGAAUGUAUGCCACAUGGAAAUACAUGAGGAUCACCCAUGUAGAAGGUAAGGGAU [Eternabot (L2) Solution 37] (Eterna round: R97, puzzle: Exclusion 2)”: the “apparent KD of MS2 coat protein” value runs as follows: (input ligand: FMN 200 uM) 27.1 nM; (input ligand: none) 20.5 nM.

For the sequence “GAUUAACAUGAGGAUCACCCAUGUGAGGAUAUACGAGAAUAGAUUUCGAUCAGAUAGAGUAGAAGGCACAGAUA [EX1 #1] (Eterna round: R97, puzzle: Exclusion 1)”, the “apparent KD of MS2 coat protein” value is, setting by setting: (input ligand: FMN 200 uM) 44.9 nM; (input ligand: none) 27 nM.

As to “GAUUAACAUGAGGAUCACCCAUGUGAGGAUAUGGAAUGGCUCAUUGUUUGAUUCCCGUCUAGAAGGCACAUCUU [1986#7] (Eterna round: R97, puzzle: Exclusion 1)”, the “apparent KD of MS2 coat protein” value by setting is: (input ligand: FMN 200 uM) 150 nM; (input ligand: none) 116 nM.

Regarding “GAUUAUGCGAGCUUUAGGGACAUGAGGAUCACCCAUGUUCGUCUUAUUAAUCUGGGUACACUAGCAUACCUAAAUCU [JMF 8] (puzzle: Sensor v3, turn-off variant 1)”, the “apparent KD of MS2 coat protein” value under setting [2] amounted to 26.9 nM, the “apparent KD of MS2 coat protein” value under setting [1] is 44.1 nM and the “apparent KD of MS2 coat protein” value under setting [3] was found to be 30.5 nM.

For the sequence “GAUUAUGCGAGCUUUAGGGACAUGAGGAUCACCCAUGUUCGUCUUAUUAGUCUGGGUACACUGACAUACCUAAAUCU [JMF 71] (puzzle: Sensor v3, turn-off variant 1)”, the “apparent KD of MS2 coat protein” value under setting [2] turned out to be 24.6 nM, the “apparent KD of MS2 coat protein” value under setting [1] stood at 35.2 nM and the “apparent KD of MS2 coat protein” value under setting [3] is 25.4 nM.

In the case of “GAUUAUGCGAGCUUUAGGGACAUGAGGAUCACCCAUGUUCGUCUUAUUGAUCUAGGUACGCUGACGUACCUAAAUCU [Mod of one of jandersonlee's solutions] (puzzle: Sensor v3, turn-off variant 1)”, the “apparent KD of MS2 coat protein” value is 20.5 nM under setting [2], 35.2 nM under setting [1] and 23.4 nM under setting [3].

As to “GAUUAUGCGAGCUUUAGGGACAUGAGGAUCACCCAUGUUCGUCUUAUUGAUCUGGGUACACUAACAUACCUAAAUCU [JMF 20] (puzzle: Sensor v3, turn-off variant 1)”, the “apparent KD of MS2 coat protein” value under setting [2] worked out at 87.2 nM, the “apparent KD of MS2 coat protein” value under setting [1] is 99.7 nM and the “apparent KD of MS2 coat protein” value under setting [3] worked out at 94.3 nM.

For “GAUUAUGCGAGCUUUAGGGACAUGAGGAUCACCCAUGUUCGUCUUAUUGGUCUAGGUGCGCUAACAUACCUAAAUCU [JMF 51] (puzzle: Sensor v3, turn-off variant 1)”, the “apparent KD of MS2 coat protein” value under setting [2] was found to be 21.9 nM, the “apparent KD of MS2 coat protein” value under setting [1] is 34.8 nM and the “apparent KD of MS2 coat protein” value under setting [3] was determined as 25.4 nM.
